From US11124558B2, “Use of tetranectin and peptide agonists to treat inflammatory diseases” (The Feinstein Institutes for Medical Research, priority 2017, dated 2021)
“Also recorded” adds a separate entry of the source. Non-standard residues stand in square brackets, D forms with d. No end group written: not given here. Nle = CCCC[C@H](N)C(=O)O

Key:
[1] = system: lethal sepsis (CLP), Balb/C mice; assay: Lethal sepsis by cecal ligation and puncture (CLP), survival in mice; assay type: in vivo; details: male Balb/C mice, given intraperitoneally, survival monitored more than two weeks
Procedure: FIG. 6A-6C: Recombinant TN protected mice against lethal endotoxemia and sepsis. Male Balb/C mice were subjected to lethal endotoxemia (LPS, 5 mg/kg, i.p., Panel A) or sepsis by cecal ligation and puncture (CLP, Panel B, C), and recombinant TN produced in HEK293 (Panel A, B) or E. coli (Panel C) was given intraperitoneally at indicated dosing regimens. Animal survival rates were monitored for more than two weeks to ensure no later death. Shown in Panel B and C is a summary of two independent experiments with similar results.
(§1) FIG. 9: N-terminal deletion TN mutant protected mice against lethal sepsis. Male Balb/C mice were subjected to lethal sepsis by cecal ligation and puncture (CLP), and recombinant deletion mutant (ΔTN) was given intrapeitoneally at indicated dosing regimens. Animal survival rates were monitored for more than two weeks to ensure no later death. Shown was a summary of two independent experiments with similar results.
as §1, with “10:” for “9: N-terminal deletion”, “peptide agonist (P11)” for “mutant”, “TN peptide agonist, (P11, […]) (SEQ ID NO:11)” for “recombinant deletion mutant (ΔTN)”, “N=8-18 animals per group.” for “similar results.”
FIG. 13A-13B: Tetranectin peptide agonists (P2 and P2-M/Nle) protected mice against lethal sepsis. Male Balb/C mice were subjected to lethal sepsis by cecal ligation and puncture (CLP), and TN peptide agonist, P2 (55-KVHMKCFLAFTQTKTF-70) (13A) (SEQ ID NO:2) or P2-M/Nle (54-TKVH(Nle)KSFLAFTQTKT-69) (13B) (SEQ ID NO:13) was given intraperitoneally at indicated dosing regimens. Animal survival rates were monitored for more than two weeks to ensure no later death. Shown was a summary of independent experiment with N=10 animals per group. The Kaplan-Meier method was used to compare the difference in mortality rates between groups. *, P<0.05 versus “CLP+Vehicle” group.
Effects of TN or peptide agonist on LSI. Balb/C mice (both male and female, 7-8 weeks, 20-25 g) are subjected to lethal endotoxemia or sepsis as described above, and the recombinant TN is injected (i.p.) at various doses and time points (2, 24, and 48 h) after the onset of endotoxemia or sepsis. Their effects on the outcomes of LSI is assessed by comparing the long-term (two-week) survival rates between the TN-treated groups with saline vehicle-treated controls. By varying the time points (e.g., 2, 12, 24 or 36 h) when the first dose of TN will be given to animals, the therapeutic windows for the TN-based therapy is estimated. […] It will be critical to continue these exciting experiments using other dosing regimens to further validate TN's protective role in LSI.
To explore the therapeutic potential of the TN-based strategies, the efficacy of TN-specific peptide agonists that would recapitulate the HMGB1-inhibiting capacities is tested using both animal models of lethal endotoxemia and sepsis. A series of peptide agonists have been designed, and chemically synthesized or biologically expressed as recombinant peptide (Table 1, FIG. 7). Peptide agonists will be given to the endotoxemic or septic mice intraperitoneally at various doses and time points after the onset of endotoxemia or sepsis. Their effects on the outcomes of LSI is assessed by comparing the long-term (two-week) survival rates between the peptide agonist groups and the saline vehicle-treated controls.
TN-specific peptide agonists are tested that would recapitulate the HMGB1-inhibiting capacities using both animal models of lethal endotoxemia and sepsis. Peptide agonists are given to the endotoxemic or septic mice intraperitoneally at various doses and time points after the onset of endotoxemia or sepsis. […]

[2] = system: GRO/CXCL1 and ENA-78/CXCL5 secretion, HuPBMCs; assay: Cytokine/chemokine secretion by HuPBMCs (Cytokine Antibody Arrays); assay type: cell-based; details: primary human monocytes / HuPBMCs, TN 20 μg/ml, 16 h
Procedure: Human blood was purchased from the Long Island Blood Bank, and HuPBMCs were isolated by density gradient centrifugation through Ficoll, and stimulated with recombinant TN (20 μg/ml) expressed in HEK293 or E. coli for 16 h. The extracellular levels of cytokines and chemokines were determined by Cytokine Antibody Arrays.
In light of the protective roles of these neutrophil-attracting chemokines, CXCL1/KC [67,68] and CXCL5/ENA-78 [69,70] in LSI, it is important to determine whether TN could modulate leukocyte infiltration to facilitate potential pathogen elimination during sepsis.

[3] = system: HMGB1 release; assay: LPS/SAA-induced HMGB1 release, summary statement (cells not specified); assay type: cell-based
[4] = system: HMGB1 release, murine macrophage-like RAW264.7 cells; assay: SAA-induced HMGB1 release in RAW264.7 cells (Western blotting); assay type: cell-based; details: 16 h, serum-free OPTI-MEM I
Procedure: Murine macrophage-like RAW264.7 cells were cultured in serum-free OPTI-MEM I medium, and stimulated with SAA in the absence of presence of ΔTN (residue 45-181) for 16 h at the indicated concentrations. The extracellular HMGB1 levels were determined by Western blotting, and expressed as % of stimulation in the presence of SAA alone.

Molecule | protection against lethal sepsis (animal survival) [1] | release of neutrophil-attracting chemokines (CXCL1/GRO-α/KC and CXCL5/ENA-78) [2] | protection against lethal sepsis (animal survival) ([1]; listed as synthetic peptide corresponding to the plasminogen-binding region (residue 143-1)) | attenuation of LPS/SAA-induced HMGB1 release [3] | inhibition of SAA-induced HMGB1 release [4] | inhibition of SAA-induced HMGB1 release ([4]; listed as ΔTN) | protection against lethal sepsis (animal survival) ([1]; listed as N-terminal deletion mutant of TN) | protection against lethal sepsis (animal survival) ([1]; listed as ΔTN)
KVHMKCFLAFTQTKTF (listed as Homo sapiens) [Peptide P2] | protected |  |  |  |  |  |  | 
QPDGGKTENCAVLSGAANGKWFDKRCRD (listed as Homo sapiens) [Peptide P11] | protected; also recorded: significant protection | specifically stimulated | dose-dependent and significant protection | dose-dependently attenuated |  |  |  | 
TKVH(Nle)KSFLAFTQTKT (TKVH[Nle]KSFLAFTQTKT) [P2-M/Nle] | protected |  |  |  |  |  |  | 
P12: Recombinant N-terminal deletion mutant of TN, residue 45-181, carbohydrate recognition domain (CRD), expressed in E. coli, SEQ ID NO:12 (protein, listed as Homo sapiens) ALQTVCLKGTKVHMKCFLAFTQTKTFHEASEDCISRGGTLGTPQTGSENDALYEYLRQSVGNEAEIWLGLNDMAAEGTWVDMTGARIAYKNWETEITAQPDGGKTENCAVLSGAANGKWFDKRCRDQLPYICQFGIV | significant protection | specifically stimulated |  | dose-dependently attenuated | dose-dependently attenuated | dose-dependently inhibited | significant protection | protected
